Where a chain is given by its changes, count along the chain named. Names may count otherwise.
T1: RAP d3 (wild-type third domain of the receptor-associated protein) (human, UniProt P30533 235-353)
T1 construct: range 201-319 (mature RAP numbering); Expressed in E. coli from pET30(+)a; also called wild-type RAP d3; not shown: N-terminal hexahistidine and S-peptide tags of pET30(+)a
T1 sequence (looked up): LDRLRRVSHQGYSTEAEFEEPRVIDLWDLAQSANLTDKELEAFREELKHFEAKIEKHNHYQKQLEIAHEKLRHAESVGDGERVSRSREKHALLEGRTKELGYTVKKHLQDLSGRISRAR

B1: MegaRAP1 d3 T213S revertant (designed binder)
chain: T1 sequence (looked up) with E17K, H49Y, E51K, K56A, K70E
B2: MegaRAP1 d3 E270K revertant (designed binder)
chain: T1 sequence (looked up) with S13T, E17K, H49Y, E51K, K56A
B3: MegaRAP1 d3 K217E revertant (designed binder)
chain: T1 sequence (looked up) with S13T, H49Y, E51K, K56A, K70E
B4: MegaRAP1 d3 K251E, E270K double revertant (designed binder)
chain: T1 sequence (looked up) with S13T, E17K, H49Y, K56A
B5: MegaRAP1 d3 A256K, E270K double revertant (designed binder)
chain: T1 sequence (looked up) with S13T, E17K, H49Y, E51K
B6: LRP2 CR89 R1088D (receptor)
chain: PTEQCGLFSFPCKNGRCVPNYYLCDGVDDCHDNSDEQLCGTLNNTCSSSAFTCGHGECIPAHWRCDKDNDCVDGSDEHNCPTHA
notes: also called YVWD; not shown: N-terminal hexahistidine and S-peptide tag stretch of pET30(+)a
B7: RAP d3 K270E (ligand, human, UniProt P30533 235-353, looked up)
chain: T1 sequence (looked up) with K70E
notes: range 201-319 (mature RAP numbering); Forward mutant of m1; same construct; also called RAP K270E; not shown: N-terminal hexahistidine and S-peptide tags of pET30(+)a
B8: MegaRAP1 d3 (designed binder)
chain: T1 sequence (looked up) with S13T, E17K, H49Y, E51K, K56A, K70E
notes: range 201-319 (mature RAP numbering); d3 of the variant selected on LRP2 CR89; also called RAPv2A d3; RAP v2A; not shown: N-terminal hexahistidine and S-peptide tags of pET30(+)a
B9: LRP2 CR3536 (receptor)
chain: not shown
notes: domain: CR3536; the primers (LRP2CR35F, LRP2CR36R) fit CR3536; not shown: N-terminal hexahistidine and S-peptide tags of pET30(+)a
B10: LRP2 CR89 Y1042W V1047D (receptor)
chain: PTEQCGLFSFPCKNGRCVPNYWLCDGDDDCHDNSDEQLCGTLNNTCSSSAFTCGHGECIPAHWRCDKRNDCVDGSDEHNCPTHA
notes: also called WDWR; not shown: N-terminal hexahistidine and S-peptide tag stretch of pET30(+)a
B11: RAP d3 E251K, K270E (ligand, human, UniProt P30533 235-353, looked up)
chain: T1 sequence (looked up) with E51K, K70E
notes: range 201-319 (mature RAP numbering); Forward mutant of m1; same construct; also called RAP E251K, K270E; not shown: N-terminal hexahistidine and S-peptide tags of pET30(+)a
B12: RAP d3 E217K (ligand, human, UniProt P30533 235-353, looked up)
chain: T1 sequence (looked up) with E17K
notes: range 201-319 (mature RAP numbering); Forward mutant of m1; same construct; also called RAP E217K; not shown: N-terminal hexahistidine and S-peptide tags of pET30(+)a
B13: RAP d3 H249Y (ligand, human, UniProt P30533 235-353, looked up)
chain: T1 sequence (looked up) with H49Y
notes: range 201-319 (mature RAP numbering); Forward mutant of m1; same construct; also called RAP H249Y; not shown: N-terminal hexahistidine and S-peptide tags of pET30(+)a
B14: RAP d3 K256A, K270E (ligand, human, UniProt P30533 235-353, looked up)
chain: T1 sequence (looked up) with K56A, K70E
notes: range 201-319 (mature RAP numbering); Forward mutant of m1; same construct; also called RAP K256A, K270E; not shown: N-terminal hexahistidine and S-peptide tags of pET30(+)a
B15: RAP d3 E251K, K256A, K270E (ligand, human, UniProt P30533 235-353, looked up)
chain: T1 sequence (looked up) with E51K, K56A, K70E
notes: range 201-319 (mature RAP numbering); Forward mutant of m1; same construct; also called RAP E251K, K256A, K270E; not shown: N-terminal hexahistidine and S-peptide tags of pET30(+)a
B16: RAP d3 E251K (ligand, human, UniProt P30533 235-353, looked up)
chain: T1 sequence (looked up) with E51K
notes: range 201-319 (mature RAP numbering); Forward mutant of m1; same construct; also called RAP E251K; not shown: N-terminal hexahistidine and S-peptide tags of pET30(+)a
B17: LRP2 CR3031 (receptor)
chain: not shown
notes: domain: CR3031; not shown: N-terminal hexahistidine and S-peptide tags of pET30(+)a
B18: LRP2 CR89 Y1042W R1088D (receptor)
chain: B10 chain with D27V, R68D
notes: also called WVWD; not shown: N-terminal hexahistidine and S-peptide tag stretch of pET30(+)a
B19: LRP2 CR2728 (receptor, human, UniProt P98164 3552-3631, looked up)
chain: FCRLGQFQCSDGNCTSPQTLCNAHQNCPDGSDEDRLLCENHHCDSNEWQCANKRCIPESWQCDTFNDCEDNSDEDSSHCA
notes: domain: CR2728; not shown: N-terminal hexahistidine and S-peptide tags of pET30(+)a

Legend:
LRP1 CR3-5 = biological target: T2, LRP1 CR3-5 (human); test: solid-phase assay, coated CR protein
T2 construct: range 852-973; also called L1 CR3-5; LRP1 CR3-S [sic]
Protocol: (§1) Wells were washed with TBSTC and bound ligands detected with polyclonal anti-RAP (BP41/42, 1:1,000, BioMarin). Excess primary antibody was removed and wells washed before incubation with the secondary antibody, HRP-conjugated goat anti rabbit IgG (Bio-Rad). After washing, TMB substrate solutions (Bio-Rad) were added to detect HRP. Color development was stopped with 1N HCl. Absorption at 450 nm was measured with a microplate spectrophotometer (Molecular Devices). Data were plotted and Kd values derived by non-linear regression with the assumption of single-site binding (GraphPad Prism).
Next, the binding of RAP d3 and MegaRAP1 d3 proteins to LRP1 CR3-5 and LRP2 CR89 was assessed. […] In all cases, 10 mM EGTA prevented binding of both RAP d3 and MegaRAP1 d3 to CR proteins. Since calcium was the only divalent metal ion present in the binding buffer, this observation is consistent with both RAP d3 and MegaRAP1 d3 binding to calcium-loaded CR pairs. […] Therefore, wild-type RAP d3 and MegaRAP1 d3 have inverted binding preferences for these two receptor fragments.

MegaRAP1 d3 [1] = biological target: B8; test: solid-phase assay, coated CR protein
Protocol: as §1
One premise of this work was that amino acids at A, C, A′ and C′ within the calcium-binding loops of a CR pair were key determinants of binding affinity for RAP and would be similarly important for binding of RAP variants. To test this idea, mutant LRP2 CR89 were prepared in which the native, non-canonical residues at these positions were sequentially substituted with the non-native, canonical residues. As defined above, the A, C, A′, C′ string for LRP2 CR89 is YVWR. Mutants included LRP2 CR89Y1042W (WVWR), LRP2 CR89V1047D (YDWR), LRP2 CR89R1088D (YVWD), LRP2 CR89V1047D R1088D (YDWD), LRP2 CR89 Y1042W V1047D R1088D (WDWD), LRP2 CR89Y1042W V1047D (WDWR), LRP2 CR89Y1042W R1088D (WVWD). Binding to both RAP d3 and MegaRAP1 d3 were measured for each LRP2 CR89 mutant by solid-phase assay. […] The A′ position in LRP2 CR89 is a tryptophan, the canonical residue for wild-type RAP d3 binding, and was not mutated in our studies. […] We did see a small increase in binding of RAP d3 to the WVWD and WDWD combinations at A, C, A′ and C′.

MegaRAP1 d3 [2] = biological target: B8; test: solid-phase binding assay: CR protein coated on the plate, d3 ligand at 80 nM, anti-RAP detection, blank-corrected absorbance
Protocol: (§2) RAP d3, MegaRAP1 d3, VRAP2 d3, MatRAP1d3 and MatRAP2 d3 were each incubated at 80 nM concentrations with LRP1 CR3-5, LRP6 CR12, LRP6 CR23, LRP6 CR1-3, LRP2 CR89, LRP2 CR2728, LRP2 CR3031, LRP2 CR3435, LRP2 CR34-36, VLDLR CR78, VLDLR CR6-8, MAT CR12, MAT CR23 and MAT CR34. Samples were tested twice, in duplicate, and values combined. Means and standard deviations were then calculated. Blank values obtained from wells incubated in the absence of ligand were used to correct absorbance data.
(§3) Solid phase binding assays—Purified, refolded CR protein (1 μg) was bound to Nunc Maxisorp™ 96-well plates in TBS pH 8 supplemented with 5 mM CaCl₂ (TBSC) overnight at 4° C. Wells were washed with TBSC and then blocked with TBSC containing 2% bovine serum albumin (BSA). RAP ligands were then incubated with the immobilized receptor at a range of concentrations for 2 hours in the above blocking buffer supplemented with 0.05% Tween-20 at room temperature. Control wells contained no added ligand. As an additional control, to determine whether the absence of calcium affected binding, 10 mM EGTA was included in the incubation medium for some samples. Wells were washed with TBSTC and bound ligands detected with polyclonal anti-RAP (BP41/42, 1:1,000, BioMarin). Excess primary antibody was removed and wells washed before incubation with the secondary antibody, HRP-conjugated goat anti rabbit IgG (Bio-Rad). After washing, TMB substrate solutions (Bio-Rad) were added to detect HRP. Color development was stopped with 1N HCl. Absorption at 450 nm was measured with a microplate spectrophotometer (Molecular Devices). Data were plotted and Kd values derived by non-linear regression with the assumption of single-site binding (GraphPad Prism).
(§4) The apparent dissociation constant for binding of VRAP1d3 to VLDLR CR78 was determined to be […]. We then compared binding of RAP d3, MegaRAP1 d3, VRAP1d3, MatRAP1d3 and MatRAP2 d3, each at a concentration of 80 nM, to fourteen CR pairs or triplets, including LRP1 CR3-5, LRP2 CR89, LRP2 CR2728, LRP2 CR3031, LRP2 CR34-36, LRP2 CR3536, VLDLR CR78, VLDLR CR6-8, LRP6 CR1-3, LRP6 CR12, LRP6 CR23, MAT CR12, MAT CR23 and MAT CR34 (FIG. 7).

MegaRAP1 d3 [3] = biological target: B8; test: solid-phase binding assay: LRP2 CR89 variant coated on the plate, d3 ligand in solution, anti-RAP detection, absorbance
Protocol: as §3, with “RAP” for “Solid phase binding assays—Purified, refolded CR protein (1 μg) was bound to Nunc Maxisorp™ 96-well plates in TBS pH 8 supplemented with 5 mM CaCl₂ (TBSC) overnight at 4° C. Wells were washed with TBSC and then blocked with TBSC containing 2% bovine serum albumin (BSA). RAP”
One premise of this work was that amino acids at A, C, A′ and C′ within the calcium-binding loops of a CR pair were key determinants of binding affinity for RAP and would be similarly important for binding of RAP variants. […] Binding to both RAP d3 and MegaRAP1 d3 were measured for each LRP2 CR89 mutant by solid-phase assay. […]

[4] = biological target: T1, RAP d3 (wild-type third domain of the …); test: solid-phase binding assay: CR protein coated on the plate, d3 ligand at 80 nM, anti-RAP detection, blank-corrected absorbance
Protocol: as §2, §3, §4

T2 sequence (Q07954 852-973): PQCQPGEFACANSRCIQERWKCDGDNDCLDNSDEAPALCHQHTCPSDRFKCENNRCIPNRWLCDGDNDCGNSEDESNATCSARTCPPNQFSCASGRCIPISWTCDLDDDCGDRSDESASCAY

% max binding (LRP1 CR3-5) [%] | Binder | also measured
2 | B1 | 
85 | B2 | 
2 | B3 | 
16 | B4 | 
93 | B5 | 
 | B6 | Kd (MegaRAP1 d3 [1]): 78 nM
4 | B7 | 
4 | B8 | 
 | B9 | binding result (MegaRAP1 d3 [2]): no binding (tested: 80 nM)
 | B10 | binding result (MegaRAP1 d3 [3]): no binding (tested: 100 nM)
4 | B11 | 
91 | B12 | 
90 | B13 | 
2 | B14 | 
2 | B15 | 
100 | B16 | 
 | B17 | binding result [4]: no binding (tested: 80 nM); binding result (MegaRAP1 d3 [2]): no binding (tested: 80 nM)
 | B18 | binding result (MegaRAP1 d3 [3]): no binding (tested: 100 nM)
 | B19 | binding result [4]: no binding (tested: 80 nM); binding result (MegaRAP1 d3 [2]): no binding (tested: 80 nM)
